Experimental data taken from patent publication US20220389118A1 (Chugai, published 2022).
Changes are numbered by the printed parent chain. Like-named read-outs stand apart in the source and are kept apart here. One block for each binder: values may come before it.

How the values were obtained:
[1] = target: T1, human FcγRIIa type H extracellular domain with C-terminal His tag (human, UniProt P12318 34-217); test: SPR (Biacore)
T1 construct: extracellular domain; also called FcγRIIaH; FcgRIIaH
T1 sequence (looked up): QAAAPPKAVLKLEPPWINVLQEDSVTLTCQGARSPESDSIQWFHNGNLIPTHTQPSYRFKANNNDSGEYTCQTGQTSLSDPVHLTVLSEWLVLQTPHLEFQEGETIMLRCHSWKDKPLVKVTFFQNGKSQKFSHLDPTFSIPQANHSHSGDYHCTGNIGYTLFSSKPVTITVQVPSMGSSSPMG

[2] = target: T2, human FcγRIIb extracellular domain (human, UniProt P31994 43-217); test: ratio of the SPR KD for FcγRIIaR to the KD for FcγRIIb (selectivity)
T2 construct: also called FcγIIB; not shown: His tag at the C terminus
T2 sequence: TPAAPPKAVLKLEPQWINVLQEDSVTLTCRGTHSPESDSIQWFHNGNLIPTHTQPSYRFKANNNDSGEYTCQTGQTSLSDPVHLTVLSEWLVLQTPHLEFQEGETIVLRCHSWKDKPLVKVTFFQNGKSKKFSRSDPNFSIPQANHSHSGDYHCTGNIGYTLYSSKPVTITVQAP

[3] = target: T2, human FcγRIIb extracellular domain; test: ratio of the SPR KD for FcγRIIaH to the KD for FcγRIIb (selectivity)
[4] = target: T3, human FcγRIa extracellular domain (human, UniProt P12314 16-292); test: SPR (Biacore), antibody captured on chip, FcγR extracellular domain as analyte, 25 C
T3 construct: also called CD64; not shown: His tag at the C terminus

[5] = target: T4, human FcγRIIa type R extracellular domain (human, UniProt P12318 34-217); test: as above
T4 construct: also called FcγRIIaR; FcγRIIa(R); not shown: His tag at the C terminus
T4 chain: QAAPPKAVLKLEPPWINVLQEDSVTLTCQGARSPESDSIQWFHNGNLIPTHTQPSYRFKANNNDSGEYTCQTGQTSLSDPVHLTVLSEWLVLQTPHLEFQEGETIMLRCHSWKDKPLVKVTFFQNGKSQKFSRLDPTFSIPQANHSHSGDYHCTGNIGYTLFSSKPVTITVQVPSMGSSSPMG

[6] = target: T2, human FcγRIIb extracellular domain; test: as above
[7] = target: T4, human FcγRIIa type R extracellular …; test: fold against IL6R-B3/IL6R-L, from SPR KD values
[8] = target: T2, human FcγRIIb extracellular domain; test: fold against IL6R-B3/IL6R-L, from SPR KD values
[9] = target: T5, human FcγRIa extracellular domain with C-terminal His tag (human, UniProt P12314 16-292); test: SPR (Biacore), antibody captured, FcγR analyte
T5 construct: not shown: His tag at the C terminus
T5 sequence (P12314 16-292): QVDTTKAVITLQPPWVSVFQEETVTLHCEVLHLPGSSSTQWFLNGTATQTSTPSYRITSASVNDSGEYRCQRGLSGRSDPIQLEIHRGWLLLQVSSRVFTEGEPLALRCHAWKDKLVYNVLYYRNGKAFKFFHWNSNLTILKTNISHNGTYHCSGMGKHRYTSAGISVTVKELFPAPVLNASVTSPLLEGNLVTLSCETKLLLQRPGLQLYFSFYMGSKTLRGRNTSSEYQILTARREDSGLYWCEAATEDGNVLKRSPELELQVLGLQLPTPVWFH

[10] = target: T6, human FcγRIIa type R (R131) extracellular domain with C-terminal His tag (human, UniProt P12318 34-217); test: SPR (Biacore); KD of IL6R-B3/IL6R-L divided by KD of this antibody
T6 construct: extracellular domain; also called FcγRIIaR; not shown: His tag at the C terminus
T6 sequence (looked up): T1 sequence (looked up) with H134R

[11] = target: T7, human FcγRIIb extracellular domain with C-terminal His tag (human, UniProt P31994 43-217); test: as above
T7 construct: extracellular domain; not shown: His tag at the C terminus
T7 sequence (looked up): T2 sequence

[12] = target: T6, human FcγRIIa type R (R131) …; test: SPR (Biacore), antibody captured, FcγR analyte
[13] = target: T8, human FcγRIa extracellular domain with C-terminal His tag (human, UniProt P12314 16-292); test: SPR (Biacore), antibody captured, FcγR analyte; remark: listed apart in the source
T8 construct: not shown: His tag at the C terminus
T8 sequence (P12314 16-292): as above

[14] = target: T7, human FcγRIIb extracellular domain with …; test: SPR (Biacore), antibody captured, FcγR analyte
[15] = target: T7, human FcγRIIb extracellular domain with …; test: SPR (Biacore); KD for FcγRIIaR divided by KD for FcγRIIb
[16] = target: T9, human FcγRIIa type H (H131) extracellular domain with C-terminal His tag (human, UniProt P12318 34-217); test: SPR (Biacore), antibody captured, FcγR analyte
T9 construct: extracellular domain; also called FcγRIIaH; not shown: His tag at the C terminus
T9 sequence (looked up): T1 sequence (looked up)

T3 sequence (P12314 16-292): as above

B1: IL6R-BP089/IL6R-L (antibody, human IgG1, kappa)
heavy: QVQLQESGPGLVKPSETLSLTCAVSGHSISHDHAWSWVRQPPGEGLEWIGFISYSGITNYNPSLQGRVTISRDNSKNTLYLQMNSLRAEDTAVYYCARSLARTTAMDYWGEGTLVTVSSASTKGPSVFPLAPSSKSTSGGTAALGCLVKDYFPEPVTVSWNSGALTSGVHTFPAVLQSSGLYSLSSVVTVPSSSLGTQTYICNVNHKPSNTKVDKKVEPKSCDKTHTCPPCPAPEYLGGDSVFLFPPKPKDTLMISRTPEVTCVVVDVSHEDPEVKFNWYVDGVEVHNAKTKPREEQYNSTYRVVSVLTVLHQDWLNGKEYKCKVSNAALPKPIEKTISKAKGQPREPQVYTLPPSRDELTKNQVSLTCLVKGFYPSDIAVEWESNGQPENNYKTTPPVLDSDGSFFLYSKLTVDKSRWQQGNVFSCSVMHEALHNHYTQESLSLSP
light: not shown
notes: EU numbering; alterations on IL6R-B3; copies: 2 + 2
Kd [1]: 20000 nM

B2: IL6R-BP564/IL6R-L (antibody, human IgG1, kappa)
heavy: B1 heavy with Y236L, G239D, H270E, P273G, E274D, Y298D, A328K, K332R
light: not shown
notes: copies: 2 + 2
KD(IIaR)/KD(IIb) [2]: 26.2
KD(IIaH)/KD(IIb) [3]: 454
Kd [4]: 31 nM
Kd [5]: 580 nM
Kd [6]: 22 nM
KD(IIaR) of the parent polypeptide/KD(IIaR) of the altered polypeptide [7]: 1.9
KD(IIb) of the parent polypeptide/KD(IIb) of the altered polypeptide [8]: 141

B5: IL6R-BP220/IL6R-L (antibody, human IgG1, kappa)
heavy: B1 heavy with E235D, Y236L, G239D, H270D, P273G, Y298D, A328K
light: not shown
notes: copies: 2 + 2
Kd [9]: 20 nM

B6: IL6R-BP176/IL6R-L (antibody, human IgG1, kappa)
heavy: B1 heavy with E235D, Y236L, A328D
light: not shown
notes: as for B1
Kd [1]: 30000 nM

The next lines start with the values.

Kd [9]: 70 nM
B3: IL6R-BP233/IL6R-L (antibody, human IgG1, kappa)
heavy: B1 heavy with G239D, P273G, A328K
light: not shown
notes: copies: 2 + 2

KD(IIaR) of parent polypeptide/KD(IIaR) of altered polypeptide [10]: 2.2
KD(IIb) of parent polypeptide/KD(IIb) of altered polypeptide [11]: 184
Kd [12]: 480 nM
Kd [13]: 9.8 nM
Kd [14]: 17 nM
KD(IIaR)/KD(IIb) [15]: 28.8
B4: IL6R-BP544/IL6R-L (antibody, human IgG1, kappa)
heavy: B1 heavy with E235D, Y236L, G239D, H270D, P273G, Y298D, A328K, K332R, R357Q
light: not shown
notes: R355Q introduced into IL6R-BP230; copies: 2 + 2

KD(IIaR) of parent polypeptide/KD(IIaR) of altered polypeptide [10]: 2.4
KD(IIb) of parent polypeptide/KD(IIb) of altered polypeptide [11]: 190
Kd [12]: 450 nM
Kd [13]: 11 nM
Kd [14]: 16 nM
KD(IIaR)/KD(IIb) [15]: 27.8
B7: IL6R-BP541/IL6R-L (antibody, human IgG1, kappa)
heavy: B1 heavy with E235D, Y236L, G239D, H270D, P273G, K276Q, Y298D, A328K, K332R
light: not shown
notes: K274Q introduced into IL6R-BP230; copies: 2 + 2

KD(IIaR) of parent polypeptide/KD(IIaR) of altered polypeptide [10]: 2.2
KD(IIb) of parent polypeptide/KD(IIb) of altered polypeptide [11]: 205
Kd [12]: 500 nM
Kd [13]: 9 nM
Kd [14]: 15 nM
KD(IIaR)/KD(IIb) [15]: 32.8
B8: IL6R-BP546/IL6R-L (antibody, human IgG1, kappa)
heavy: B1 heavy with E235D, Y236L, G239D, H270D, P273G, Y298D, A328K, K332R, L360M
light: not shown
notes: L358M introduced into IL6R-BP230; copies: 2 + 2

Kd [16]: 2000 nM
B9: IL6R-BP451/IL6R-L (antibody, human IgG1, kappa)
heavy: B1 heavy with E235D, Y236L, G239D, S269A, H270E, P273G, A328K, K332R, P398G
light: not shown
notes: P396G introduced into IL6R-BP423; copies: 2 + 2

Kd [4]: 9.4 nM
Kd [5]: 510 nM
Kd [6]: 18 nM
B10: IL6R-BP561/IL6R-L (antibody, human IgG1, kappa)
heavy: B1 heavy with E235D, Y236L, G239D, H270D, P273G, E274D, Y298D, A328K, K332R
light: not shown
notes: copies: 2 + 2
